Target: TB-1
Experiment: ELISA binding of G4P to immobilized biotinylated oligonucleotide
Conditions: G4, Bulge, read-out: Kd (nM) ± SD

B1: G4P: Polypeptide probe: two RHAU23 G4-binding domains, linker of three GTGSGA hexapeptides, C-terminal 3xFLAG tag, N-terminal HIS tag; SEQ ID NO: 4 (protein)
chain: MGSSHHHHHHSSGLVPRGSHMHPGHLKGREIGMWYAKKQGQKNKGTGSGAGTGSGAGTGSGAHPGHLKGREIGMWYAKKQGQKNKGTGSGADYKDHDGDYKDHDIDYKDDDDK
modifications: Fully synthetic
- Kd: 0.74 ± 0.05 nM

— patent publication US11767343B2, “Peptide probe for recognition of G-quadruplex and use thereof in detection of G-quadruplex in cell” (Changzhi Medical College, priority 2020, dated 2023)
